Bridges are numbered along the chain shown (N, C = ends). Where no end group is shown, it is not given here. [ ]: non-standard residue; d: D form. Glc = glycosylated with D-glucose; Lact = not defined here
What was measured:
[1] = target: kappa opioid receptor, P41145; assay: PDSP receptor binding; log of Ki in M
[2] = target: mu opioid receptor (UniProt P35372); assay: PDSP receptor binding
[3] = target: delta opioid receptor (UniProt P41143); assay: PDSP receptor binding, selectivity against MOR; from the 10,000 nM ceiling
[4] = target: kappa opioid receptor (UniProt P41145); assay: as above
[5] = target: mu opioid receptor (UniProt P35372); assay: PDSP receptor binding; against the glycosylated Trp analogs
[6] = target: delta opioid receptor (UniProt P41143); assay: PDSP receptor binding; binding eliminated by the text
[7] = target: kappa opioid receptor (UniProt P41145); assay: as above
[8] = target: mu opioid receptor (UniProt P35372); assay: PDSP receptor binding; log of Ki in M

Question: How did the Log Ki [1] turn out when Y[dK]WFES-NH2 (lactam 2-5) [Analog A8: Tyr-c[D-Lys-Trp-Phe-Glu]-Ser-NH2] was run?
Answer: -5.98

Question: With YK[dNal]FES(Glc)-NH2 (not fully specified) [Analog A4 (D-Nal at position 3, C-terminus Ser(Glc)CONH2)] as the binder, how does the Ki [2] read?
Answer: 0.0635 µM

Question: And the del/mu (ratio of Ki at DOR to Ki at MOR) [3]?
Answer: > 157

Question: What about the kap/mu (ratio of Ki at KOR to Ki at MOR) [4] of the same binder?
Answer: > 157

Question: What about the further fold reduction of MOR binding by D-Nal at position 3 [5] of the same binder?
Answer: 11 fold

Question: And the Ki [6]?
Answer: > 10 µM

Question: And the Ki [7]?
Answer: > 10 µM

Question: And the Log Ki [8]?
Answer: -7.2

Question: What does the source list for YK[dNal]FES(Lact)-NH2 (not fully specified; reading uncertain) [Analog A5 (D-Nal at position 3, C-terminus Ser(Lact)CONH2)]?
Answer: Ki [2]: 0.0553 µM; del/mu (ratio of Ki at DOR to Ki at MOR) [3]: > 181; kap/mu (ratio of Ki at KOR to Ki at MOR) [4]: > 181; further fold reduction of MOR binding by D-Nal at position 3 [5]: 11 fold; Ki [6]: > 10 µM; Ki [7]: > 10 µM; Log Ki [8]: -7.26
